Values quoted from earlier work as cited in PMC4086743 (Amino acids, 2012).

B1: proCrp4: full-length precursor of Crp4 with electronegative proregion, recombinant (protein, UniProt P28311 20-92, looked up)
pro-form: DPIQNTDEETKTEEQPGEEDQAVSISFGGQEGSALHEKSLRGLLCYCRKGHCKRGERVRGTCGIRFLYCCPRR
modifications: pro-form
B2: HD5: human Paneth cell α-defensin HD5 (peptide, UniProt Q01523 20-94, looked up)
Defensin alpha 5: ESLQERADEATTQKQSGEDNQDLAISFAGNGLSALRTSGSQARATCYCRTGRCATRESLSGVCEISGRLYRLCCR
modifications: Defensin-5

Molecule	resistance to proteolysis by MMP7 (MMP7)	sensitivity to trypsin (trypsin)	sensitivity to chymotrypsin (chymotrypsin)
B1	completely resistant		
B2		insensitive	insensitive
